Measurements: EP4703474A1, “ANTI-LRRC15 ANTIBODY” (priority 2023, dated 2024)

Key:
[1] = test system: Mouse colorectal carcinoma cell line CMT93; assay: In vivo antitumor effect, CMT93 subcutaneous transplant model; conditions: 0.4 mg/kg, tail vein, on Day 7, male B6J mice
Description: (§1) The antitumor effects of the antibody-drug conjugates were evaluated by using animal models in which cells of a human tumor cell line had been transplanted into immunodeficient mice, or cells of a mouse tumor cell line had been transplanted into immunocompetent mice. 4 to 6 Week-old SCID mice (CB17/Icr-Prkdc[scid]/CrlCrlj, Jackson Laboratory Japan, Inc.), NSG mice (NOD.Cg-Prkdcscid Il2rgtm1Wjl/SzJ, Jackson Laboratory Japan, Inc.), or B6J mice (C57BL/6J, Jackson Laboratory Japan, Inc.) were habituated for 3 days or more under SPF conditions before experimental use. The mice were fed with sterilized solid feed and given sterilized tap water. The major and minor diameters of the transplanted tumors were measured twice a week with an electronic digital caliper (Mitutoyo Corporation), and the estimated tumor volume was calculated using the following formula. Estimated tumor volume (mm^3) = 1/2 × major diameter (mm) × [minor diameter (mm)]^2 All antibody-drug conjugates were diluted with ABS and administered into the tail vein at doses shown in each Example. In addition, ABS (vehicle) or control hIgG-PBD prepared in Reference Example 4 was administered as the control group, in a similar manner. 5 to 6 Mice were used per group in the experiment. To analyze the LRRC15 expression in mouse tumor models, immunohistochemical staining of LRRC15 was performed. […]

[2] = test system: Gastric carcinoma cell line Caki-1; assay: In vivo antitumor effect, Caki-1 subcutaneous transplant model; conditions: 0.4 mg/kg, tail vein, on Day 21, female SCID mice
Description: as §1

[3] = test system: HER2-positive breast carcinoma cell line SUM190PT; assay: In vivo antitumor effect, SUM190PT subcutaneous transplant model; conditions: 0.4 mg/kg, tail vein, on Day 32, female SCID mice
Description: as §1, with “experiment.” for “experiment. To analyze the LRRC15 expression in mouse tumor models, immunohistochemical staining of LRRC15 was performed.”

Row | Molecule | antitumor effect (estimated tumor volume) [1] | antitumor effect (estimated tumor volume) [2] | antitumor effect (estimated tumor volume) [3]
1 | H02L01-PBD (conjugate) heavy: EVQLVESGGGLVQPGGSLRLSCAASGFTFRDYYMAWVRQAPGKGLEWVSSIGFDESRTYYADSVKGRFTISRDDSKNTLYLQMNSLRAEDTAVYYCARHGVSYYSGDNWFAYWGQGTLVTVSSASTKGPSVFPLAPSSKSTSGGTAALGCLVKDYFPEPVTVSWNSGALTSGVHTFPAVLQSSGLYSLSSVVTVPSSSLGTQTYICNVNHKPSNTKVDKKVEPKSCDKTHTCPPCPAPEAAGGPSVFLFPPKPKDTLMISRTPEVTCVVVDVSHEDPEVKFNWYVDGVEVHNAKTKPREEQYNSTYRVVSVLTVLHQDWLNGKEYKCKVSNKALAAPIEKTISKAKGQPREPQVYTLPPSREEMTKNQVSLTCLVKGFYPSDIAVEWESNGQPENNYKTTPPVLDSDGSFFLYSKLTVDKSRWQQGNVFSCSVMHEALHNHYTQKSLSLSPGK light: DIQMTQSPSSLSASVGDRVTITCKSSQGLLYSGDQKNYLAWYQQKPGKAPKLLIYWASTRQSGVPSRFSGSGSGTDFTLTISSLQPEDFATYYCQQYYDPPYTFGQGTKVEIKRTVAAPSVFIFPPSDEQLKSGTASVVCLLNNFYPREAKVQWKVDNALQSGNSQESVTEQDSKDSTYSLSSTLTLSKADYEKHKVYACEVTHQGLSSPVTKSFNRGEC | antitumor activity higher than that of the vehicle and the control hIgG-PBD | – | –
2 | H02L01-V1-PBD (conjugate) heavy: EVQLVESGGGLVQPGGSLRLSCAASGFTFRDYYMAWVRQAPGKGLEWVSSIGFDESRTYYADSVKGRFTISRDDSKNTLYLQMNSLRAEDTAVYYCARHGVSKYSGDNWFAYWGQGTLVTVSSASTKGPSVFPLAPSSKSTSGGTAALGCLVKDYFPEPVTVSWNSGALTSGVHTFPAVLQSSGLYSLSSVVTVPSSSLGTQTYICNVNHKPSNTKVDKKVEPKSCDKTHTCPPCPAPEAAGGPSVFLFPPKPKDTLMISRTPEVTCVVVDVSHEDPEVKFNWYVDGVEVHNAKTKPREEQYNSTYRVVSVLTVLHQDWLNGKEYKCKVSNKALAAPIEKTISKAKGQPREPQVYTLPPSREEMTKNQVSLTCLVKGFYPSDIAVEWESNGQPENNYKTTPPVLDSDGSFFLYSKLTVDKSRWQQGNVFSCSVMHEALHNHYTQKSLSLSPGK light: DIQMTQSPSSLSASVGDRVTITCKSSQGLLYSGDQKNYLAWYQQKPGKAPKLLIYWASTRQSGVPSRFSGSGSGTDFTLTISSLQPEDFATYYCQQYYDPPYTFGQGTKVEIKRTVAAPSVFIFPPSDEQLKSGTASVVCLLNNFYPREAKVQWKVDNALQSGNSQESVTEQDSKDSTYSLSSTLTLSKADYEKHKVYACEVTHQGLSSPVTKSFNRGEC | antitumor activity higher than that of the vehicle and the control hIgG-PBD | antitumor activity higher than that of the vehicle and control hIgG-PBD | antitumor activity higher than that of the vehicle and control hIgG-PBD
